Results as given in US20150125470A1.

Target: human Siglec-15 V-set domain (human) (UniProt Q6ZMC9)
Assay: SPR (Biacore T200), antibody captured via immobilized anti-human IgG antibody, antigen as analyte, 1:1 model

UniProt Q6ZMC9, sequence (Q6ZMC9 39-165 limits assumed, form in doubt): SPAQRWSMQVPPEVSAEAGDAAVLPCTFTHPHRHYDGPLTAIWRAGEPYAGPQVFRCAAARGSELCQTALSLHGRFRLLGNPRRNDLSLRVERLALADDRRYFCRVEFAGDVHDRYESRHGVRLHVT

Kd [nM] | Binder
0.017 | human chimeric antibody of the rat anti-human Siglec-15 monoclonal antibody #24A3 (antibody, human IgG2, V domains shown) VH: QVQLQQSGAELTKPGSSVKISCKTSGYTFPRYDVSWIKQRPGQALEWIGVIHPGSGGTGYNEKFKAKATLAVDTSSSTAFMQLSSLTPEDTAVYYCARRGLNSGYWFFDFWGPGTLVTVSS VL: DIVMTQSPTSMSISVGDRVTMNCKASQNVGSNVDWYQQKTGQSPKLLIYESTNRYTGVPDRFTGSGSGTDFTFTISNVQAEDLAVYYCMQSNFFPFTFGSGIKLEIKR

Target: human Siglec-15 V-set domain (human) (UniProt Q6ZMC9)
Assay: SPR (Biacore T200), ratio of KD values, reference rat #32A1

fold affinity against #32A1 [fold] | Binder
2 | rat anti-human Siglec-15 monoclonal antibody #24A3 (antibody, rat IgG2a, V domains shown) VH: QVQLQQSGAELTKPGSSVKISCKTSGYTFPRYDVSWIKQRPGQALEWIGVIHPGSGGTGYNEKFKAKATLAVDTSSSTAFMQLSSLTPEDTAVYYCARRGLNSGYWFFDFWGPGTLVTVSS VL: DIVMTQSPTSMSISVGDRVTMNCKASQNVGSNVDWYQQKTGQSPKLLIYESTNRYTGVPDRFTGSGSGTDFTFTISNVQAEDLAVYYCMQSNFFPFTFGSGIKLEIKR

Target: human Siglec-15 V-set domain (human) (UniProt Q6ZMC9)
Assay: SPR (Biacore T200), antibody captured via immobilized anti-mouse IgG antibody, antigen as analyte, 1:1 model

Kd [nM] | Binder
0.07 | rat anti-human Siglec-15 monoclonal antibody #24A3 (antibody, rat IgG2a, V domains shown) VH: QVQLQQSGAELTKPGSSVKISCKTSGYTFPRYDVSWIKQRPGQALEWIGVIHPGSGGTGYNEKFKAKATLAVDTSSSTAFMQLSSLTPEDTAVYYCARRGLNSGYWFFDFWGPGTLVTVSS VL: DIVMTQSPTSMSISVGDRVTMNCKASQNVGSNVDWYQQKTGQSPKLLIYESTNRYTGVPDRFTGSGSGTDFTFTISNVQAEDLAVYYCMQSNFFPFTFGSGIKLEIKR

Target: human Siglec-15 V-set domain (human) (UniProt Q6ZMC9)
Assay: SPR (Biacore T200), antibody captured via anti-human IgG, antigen as analyte, same manner as 10-1

Kd [nM] | Binder
0.027 | h#24A3-H2/L3 (antibody, human IgG2, kappa, V domains shown) VH: QVQLVQSGAEVKKPGASVKVSCKASGYTFPRYDVSWVRQAPGQGLEWMGVIHPGSGGTGYNEKFKARVTITADTSTSTAYMELSSLRSEDTAVYYCARRGLNSGYWFFDFWGQGTLVTVSS VL: DIVMTQSPDSLAVSLGERATINCKASQNVGSNVDWYQQKPGQSPKLLIYESTNRYTGVPDRFTGSGSGTDFTFTISSLQAEDVAVYYCMQSNFFPFTFGQGTKVEIKR
0.028 | h#24A3-H2/L2 (antibody, human IgG2, kappa, V domains shown) VH: QVQLVQSGAEVKKPGASVKVSCKASGYTFPRYDVSWVRQAPGQGLEWMGVIHPGSGGTGYNEKFKARVTITADTSTSTAYMELSSLRSEDTAVYYCARRGLNSGYWFFDFWGQGTLVTVSS VL: DIVMTQSPDSLAVSLGERATINCKASQNVGSNVDWYQQKPGQSPKLLIYESTNRYTGVPDRFSGSGSGTDFTFTISSLQAEDVAVYYCMQSNFFPFTFGQGTKVEIKR
0.0077 | h#24A3-H2b/L3b (antibody, human IgG2, kappa, V domains shown) VH: QVQLVQSGAEVKKPGASVKVSCKASGYTFPRYDVSWVRQAPGQGLEWMGVIHPGSGGTGYNEKFKARVTITADTSTSTAYMELSSLRSEDTAVYYCARRGLNKGYWFFDFWGQGTLVTVSS VL: DIVMTQSPDSLAVSLGERATINCKASQNVGSNVDWYQQKPGQSPKLLIYESTNRYTGVPDRFTGSGSGTDFTLTISSLQAEDVAVYYCMQSNFFPFTFGQGTKVEIKR
0.0085 | h#24A3-H2b/L2b (antibody, human IgG2, kappa, V domains shown) VH: QVQLVQSGAEVKKPGASVKVSCKASGYTFPRYDVSWVRQAPGQGLEWMGVIHPGSGGTGYNEKFKARVTITADTSTSTAYMELSSLRSEDTAVYYCARRGLNKGYWFFDFWGQGTLVTVSS VL: DIVMTQSPDSLAVSLGERATINCKASQNVGSNVDWYQQKPGQSPKLLIYESTNRYTGVPDRFSGSGSGTDFTLTISSLQAEDVAVYYCMQSNFFPFTFGQGTKVEIKR
0.0075 | h#24A3-H2d/L3b (antibody, human IgG2, kappa, V domains shown) VH: QVQLVQSGAEVKKPGASVKVSCKASGYTFPRYDVSWVRQAPGQGLEWMGVIHPGSGGTGYNEKFKARATITADTSTSTAYMELSSLRSEDTAVYYCARRGLNKGYWFFDFWGQGTLVTVSS VL: DIVMTQSPDSLAVSLGERATINCKASQNVGSNVDWYQQKPGQSPKLLIYESTNRYTGVPDRFTGSGSGTDFTLTISSLQAEDVAVYYCMQSNFFPFTFGQGTKVEIKR
0.0045 | h#24A3-H2d/L1 (antibody, human IgG2, kappa, V domains shown) VH: QVQLVQSGAEVKKPGASVKVSCKASGYTFPRYDVSWVRQAPGQGLEWMGVIHPGSGGTGYNEKFKARATITADTSTSTAYMELSSLRSEDTAVYYCARRGLNKGYWFFDFWGQGTLVTVSS VL: DIVMTQSPDSLAVSLGERATINCKASQNVGSNVDWYQQKPGQPPKLLIYESTNRYTGVPDRFSGSGSGTDFTLTISSLQAEDVAVYYCMQSNFFPFTFGQGTKVEIKR

The next lines start with the binder.

Binder | Kd [nM]
h#24A3-H2e/L3b (antibody, human IgG2, kappa, V domains shown) VH: QVQLVQSGAEVKKPGASVKVSCKASGYTFPRYDVSWVRQAPGQGLEWMGVIHPGSGGTGYNEKFKARVTITVDTSTSTAYMELSSLRSEDTAVYYCARRGLNKGYWFFDFWGQGTLVTVSS VL: DIVMTQSPDSLAVSLGERATINCKASQNVGSNVDWYQQKPGQSPKLLIYESTNRYTGVPDRFTGSGSGTDFTLTISSLQAEDVAVYYCMQSNFFPFTFGQGTKVEIKR | 0.016
h#24A3-H2e/L2b (antibody, human IgG2, kappa, V domains shown) VH: QVQLVQSGAEVKKPGASVKVSCKASGYTFPRYDVSWVRQAPGQGLEWMGVIHPGSGGTGYNEKFKARVTITVDTSTSTAYMELSSLRSEDTAVYYCARRGLNKGYWFFDFWGQGTLVTVSS VL: DIVMTQSPDSLAVSLGERATINCKASQNVGSNVDWYQQKPGQSPKLLIYESTNRYTGVPDRFSGSGSGTDFTLTISSLQAEDVAVYYCMQSNFFPFTFGQGTKVEIKR | 0.018
h#24A3-H2/L1 (antibody, human IgG2, kappa, V domains shown) VH: QVQLVQSGAEVKKPGASVKVSCKASGYTFPRYDVSWVRQAPGQGLEWMGVIHPGSGGTGYNEKFKARVTITADTSTSTAYMELSSLRSEDTAVYYCARRGLNSGYWFFDFWGQGTLVTVSS VL: DIVMTQSPDSLAVSLGERATINCKASQNVGSNVDWYQQKPGQPPKLLIYESTNRYTGVPDRFSGSGSGTDFTLTISSLQAEDVAVYYCMQSNFFPFTFGQGTKVEIKR | 0.031
h#24A3-H2c/L3b (antibody, human IgG2, kappa, V domains shown) VH: QVQLVQSGAEVKKPGASVKVSCKASGYTFPRYDVSWVRQAPGQGLEWIGVIHPGSGGTGYNEKFKARVTITADTSTSTAYMELSSLRSEDTAVYYCARRGLNKGYWFFDFWGQGTLVTVSS VL: DIVMTQSPDSLAVSLGERATINCKASQNVGSNVDWYQQKPGQSPKLLIYESTNRYTGVPDRFTGSGSGTDFTLTISSLQAEDVAVYYCMQSNFFPFTFGQGTKVEIKR | 0.015
h#24A3-H2d/L2b (antibody, human IgG2, kappa, V domains shown) VH: QVQLVQSGAEVKKPGASVKVSCKASGYTFPRYDVSWVRQAPGQGLEWMGVIHPGSGGTGYNEKFKARATITADTSTSTAYMELSSLRSEDTAVYYCARRGLNKGYWFFDFWGQGTLVTVSS VL: DIVMTQSPDSLAVSLGERATINCKASQNVGSNVDWYQQKPGQSPKLLIYESTNRYTGVPDRFSGSGSGTDFTLTISSLQAEDVAVYYCMQSNFFPFTFGQGTKVEIKR | 0.01
h#24A3-H2c/L2b (antibody, human IgG2, kappa, V domains shown) VH: QVQLVQSGAEVKKPGASVKVSCKASGYTFPRYDVSWVRQAPGQGLEWIGVIHPGSGGTGYNEKFKARVTITADTSTSTAYMELSSLRSEDTAVYYCARRGLNKGYWFFDFWGQGTLVTVSS VL: DIVMTQSPDSLAVSLGERATINCKASQNVGSNVDWYQQKPGQSPKLLIYESTNRYTGVPDRFSGSGSGTDFTLTISSLQAEDVAVYYCMQSNFFPFTFGQGTKVEIKR | 0.013
h#24A3-H2c/L1 (antibody, human IgG2, kappa, V domains shown) VH: QVQLVQSGAEVKKPGASVKVSCKASGYTFPRYDVSWVRQAPGQGLEWIGVIHPGSGGTGYNEKFKARVTITADTSTSTAYMELSSLRSEDTAVYYCARRGLNKGYWFFDFWGQGTLVTVSS VL: DIVMTQSPDSLAVSLGERATINCKASQNVGSNVDWYQQKPGQPPKLLIYESTNRYTGVPDRFSGSGSGTDFTLTISSLQAEDVAVYYCMQSNFFPFTFGQGTKVEIKR | 0.01
h#24A3-H2b/L1 (antibody, human IgG2, kappa, V domains shown) VH: QVQLVQSGAEVKKPGASVKVSCKASGYTFPRYDVSWVRQAPGQGLEWMGVIHPGSGGTGYNEKFKARVTITADTSTSTAYMELSSLRSEDTAVYYCARRGLNKGYWFFDFWGQGTLVTVSS VL: DIVMTQSPDSLAVSLGERATINCKASQNVGSNVDWYQQKPGQPPKLLIYESTNRYTGVPDRFSGSGSGTDFTLTISSLQAEDVAVYYCMQSNFFPFTFGQGTKVEIKR | 0.0098
h#24A3-H2e/L1 (antibody, human IgG2, kappa, V domains shown) VH: QVQLVQSGAEVKKPGASVKVSCKASGYTFPRYDVSWVRQAPGQGLEWMGVIHPGSGGTGYNEKFKARVTITVDTSTSTAYMELSSLRSEDTAVYYCARRGLNKGYWFFDFWGQGTLVTVSS VL: DIVMTQSPDSLAVSLGERATINCKASQNVGSNVDWYQQKPGQPPKLLIYESTNRYTGVPDRFSGSGSGTDFTLTISSLQAEDVAVYYCMQSNFFPFTFGQGTKVEIKR | 0.0069
